Legend:
V5-tagged Vps53 = biological target: T1, V5-tagged Vps53 (human, UniProt Q5VIR6 1-832); experiment: sedimentation velocity on glycerol gradient + SEC
T1 sequence: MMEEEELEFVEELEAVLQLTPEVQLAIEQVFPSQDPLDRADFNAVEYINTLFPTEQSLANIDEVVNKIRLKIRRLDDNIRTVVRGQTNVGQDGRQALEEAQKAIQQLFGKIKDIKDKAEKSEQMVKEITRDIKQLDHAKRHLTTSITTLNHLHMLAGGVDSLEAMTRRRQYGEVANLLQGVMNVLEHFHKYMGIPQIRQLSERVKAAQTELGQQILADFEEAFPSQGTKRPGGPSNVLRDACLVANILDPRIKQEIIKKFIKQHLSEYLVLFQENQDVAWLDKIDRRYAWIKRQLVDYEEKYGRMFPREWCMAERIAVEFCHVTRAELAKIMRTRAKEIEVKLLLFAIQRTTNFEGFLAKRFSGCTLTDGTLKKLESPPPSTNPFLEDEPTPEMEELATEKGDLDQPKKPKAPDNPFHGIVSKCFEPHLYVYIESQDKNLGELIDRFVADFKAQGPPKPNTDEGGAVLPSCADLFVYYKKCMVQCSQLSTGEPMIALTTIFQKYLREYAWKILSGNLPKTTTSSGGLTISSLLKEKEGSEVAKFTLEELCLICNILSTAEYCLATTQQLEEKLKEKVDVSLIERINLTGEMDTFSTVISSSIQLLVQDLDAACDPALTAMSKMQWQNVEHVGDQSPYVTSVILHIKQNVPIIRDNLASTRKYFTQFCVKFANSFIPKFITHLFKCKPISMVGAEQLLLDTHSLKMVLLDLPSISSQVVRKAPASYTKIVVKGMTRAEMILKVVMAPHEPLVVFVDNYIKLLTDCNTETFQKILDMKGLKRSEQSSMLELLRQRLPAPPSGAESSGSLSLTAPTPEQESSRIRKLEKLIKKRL

V5-tagged Vps54 = biological target: T2, V5-tagged Vps54 (human, UniProt Q9P1Q0 1-977); experiment: sedimentation velocity on glycerol gradient + SEC
T2 sequence: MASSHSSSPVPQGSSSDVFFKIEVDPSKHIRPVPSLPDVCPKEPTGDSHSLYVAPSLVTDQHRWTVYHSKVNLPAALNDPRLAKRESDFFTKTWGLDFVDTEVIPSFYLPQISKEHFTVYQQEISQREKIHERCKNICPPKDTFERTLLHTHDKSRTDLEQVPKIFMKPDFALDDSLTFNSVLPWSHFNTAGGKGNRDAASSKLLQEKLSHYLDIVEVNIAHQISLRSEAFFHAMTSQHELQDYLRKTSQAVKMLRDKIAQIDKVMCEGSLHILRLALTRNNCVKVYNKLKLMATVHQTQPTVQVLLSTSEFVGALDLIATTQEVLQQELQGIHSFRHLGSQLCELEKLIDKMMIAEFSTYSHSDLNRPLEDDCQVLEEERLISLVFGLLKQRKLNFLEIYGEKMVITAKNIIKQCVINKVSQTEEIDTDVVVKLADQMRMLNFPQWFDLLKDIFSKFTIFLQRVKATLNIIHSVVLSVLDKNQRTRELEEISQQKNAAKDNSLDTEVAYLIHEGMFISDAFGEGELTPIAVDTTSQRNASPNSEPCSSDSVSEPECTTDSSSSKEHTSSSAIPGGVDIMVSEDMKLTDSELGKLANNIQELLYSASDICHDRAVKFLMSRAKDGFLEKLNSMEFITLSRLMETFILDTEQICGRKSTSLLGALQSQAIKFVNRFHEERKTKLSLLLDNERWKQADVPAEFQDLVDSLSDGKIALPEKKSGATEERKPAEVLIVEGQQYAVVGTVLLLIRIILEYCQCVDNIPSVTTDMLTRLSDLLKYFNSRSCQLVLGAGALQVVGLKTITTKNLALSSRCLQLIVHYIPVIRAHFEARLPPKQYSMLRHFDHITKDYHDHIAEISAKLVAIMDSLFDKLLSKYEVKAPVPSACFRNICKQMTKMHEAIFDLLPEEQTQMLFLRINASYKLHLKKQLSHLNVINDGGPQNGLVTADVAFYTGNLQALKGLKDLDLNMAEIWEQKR

stoichiometry N (V5-tagged Vps53): 1 | stoichiometry N (V5-tagged Vps54): 1
B1: V5-tagged human Ang2 (natural protein)
chain: MAAAAAAGPSPGSGPGDSPEGPEGEAPERRRKAHGMLKLYYGLSEGEAAGRPAGPDPLDPTDLNGAHFDPEVYLDKLRRECPLAQLMDSETDMVRQIRALDSDMQTLVYENYNKFISATDTIRKMKNDFRKMEDEMDRLATNMAVITDFSARISATLQDRHERITKLAGVHALLRKLQFLFELPSRLTKCVELGAYGQAVRYQGRAQAVLQQYQHLPSFRAIQDDCQVITARLAQQLRQRFREGGSGAPEQAECVELLLALGEPAEELCEEFLAHARGRLEKELRNLEAELGPSPPAPDVLEFTDHGGSGFVGGLCQVAAAYQELFAAQGPAGAEKLAAFARQLGSRYFALVERRLAQEQGGGDNSLLVRALDRFHRRLRAPGALLAAAGLADAATEIVERVARERLGHHLQGLRAAFLGCLTDVRQALAAPRVAGKEGPGLAELLANVASSILSHIKASLAAVHLFTAKEVSFSNKPYFRGEFCSQGVREGLIVGFVHSMCQTAQSFCDSPGEKGGATPPALLLLLSRLCLDYETATISYILTLTDEQFLVQDQFPVTPVSTLCAEARETARRLLTHYVKVQGLVISQMLRKSVETRDWLSTLEPRNVRAVMKRVVEDTTAIDVQVGLLYEEGVRKAQSSDSSKRTFSVYSSSRQQGRYAPSYTPSAPMDTNLLSNIQKLFSERIDVFSPVEFNKVSVLTGIIKISLKTLLECVRLRTFGRFGLQQVQVDCHFLQLYLWRFVADEELVHLLLDEVVASAALRCPDPVPMEPSVVEVICERG

Reference: PMC2947474 (Molecular Biology of the Cell, 2010)
